First the molecules themselves.
B1: Bcl-2-like protein 12 (Homo sapiens), Q9HB09 (parent)
chain: MAGSEELGLREDTLRVLAAFLRRGEAAGSPVPTPPRSPAQEEPTDFLSRLRRCLPCSLGRGAAPSESPRPCSLPIRPCYGLEPGPATPDFYALVAQRLEQLVQEQLKSPPSPELQGPPSTEKEAILRRLVALLEEEAEVINQKLASDPALRSKLVRLSSDSFARLVELFCSRDDSSRPSRACPGPPPPSPEPLARLALAMELSRRVAGLGGTLAGLSVEHVHSFTPWIQAHGGWEGILAVSPVDLNLPLD

The variants in one experiment derive from B1. The note with it: with bax_human BAX.
Take MAGSEELGLREDTLRVLAAFLRRGEAAGSPVPTPPRSPAQEEPTDFLSRLRRCLPCSLGRGAAPSESPRPCSLPIRPCYGLEPGPATPDFYALVAQRLEQLVQEQLKSPPSPELQGPPSTEKEAILRRLVALLAEEAEVINQKLASDPALRSKLVRLSSDSFARLVELFCSRDDSSRPSRACPGPPPPSPEPLARLALAMELSRRVAGLGGTLAGLSVEHVHSFTPWIQAHGGWEGILAVSPVDLNLPLD [E134A]: the “effect of a mutation on the interaction” value was “with no effect”.

Consider MAGSEELGLREDTLRVLAAFLRRGEAAGSPVPTPPRSPAQEEPTDFLSRLRRCLPCSLGRGAAPSESPRPCSLPIRPCYGLEPGPATPDFYALVAQRLEQLVQEQLKSPPSPELQGPPSTEKEAILRRLVALAEEEAEVINQKLASDPALRSKLVRLSSDSFARLVELFCSRDDSSRPSRACPGPPPPSPEPLARLALAMELSRRVAGLGGTLAGLSVEHVHSFTPWIQAHGGWEGILAVSPVDLNLPLD [L133A], for which the “effect of a mutation on the interaction” value is reported as “with no effect”.

Turning to MAGSEELGLREDTLRVLAAFLRRGEAAGSPVPTPPRSPAQEEPTDFLSRLRRCLPCSLGRGAAPSESPRPCSLPIRPCYGLEPGPATPDFYALVAQRLEQLVQEQLKSPPSPELQGPPSTEKEAILRRAVALLEEEAEVINQKLASDPALRSKLVRLSSDSFARLVELFCSRDDSSRPSRACPGPPPPSPEPLARLALAMELSRRVAGLGGTLAGLSVEHVHSFTPWIQAHGGWEGILAVSPVDLNLPLD [L129A], the “effect of a mutation on the interaction” value is reported as “with no effect”.

As to MAGSEELGLREDTLRVLAAFLRRGEAAGSPVPTPPRSPAQEEPTDFLSRLRRCLPCSLGRGAAPSESPRPCSLPIRPCYGLEPGPATPDFYALVAQRLEQLVQEQLKSPPSPELQGPPSTEKEAILRRLVALLEEAAEVINQKLASDPALRSKLVRLSSDSFARLVELFCSRDDSSRPSRACPGPPPPSPEPLARLALAMELSRRVAGLGGTLAGLSVEHVHSFTPWIQAHGGWEGILAVSPVDLNLPLD [E136A], the “effect of a mutation on the interaction” value was “with no effect”. For the variant MAGSEELGLREDTLRVLAAFLRRGEAAGSPVPTPPRSPAQEEPTDFLSRLRRCLPCSLGRGAAPSESPRPCSLPIRPCYGLEPGPATPDFYALVAQRLEQLVQEQLKSPPSPELQGPPSTEKEAILRRLVAALEEEAEVINQKLASDPALRSKLVRLSSDSFARLVELFCSRDDSSRPSRACPGPPPPSPEPLARLALAMELSRRVAGLGGTLAGLSVEHVHSFTPWIQAHGGWEGILAVSPVDLNLPLD [L132A], the “effect of a mutation on the interaction” value is “with no effect”. MAGSEELGLREDTLRVLAAFLRRGEAAGSPVPTPPRSPAQEEPTDFLSRLRRCLPCSLGRGAAPSESPRPCSLPIRPCYGLEPGPATPDFYALVAQRLEQLVQEQLKSPPSPELQGPPSTEKEAALRRLVALLEEEAEVINQKLASDPALRSKLVRLSSDSFARLVELFCSRDDSSRPSRACPGPPPPSPEPLARLALAMELSRRVAGLGGTLAGLSVEHVHSFTPWIQAHGGWEGILAVSPVDLNLPLD [I125A]: the “effect of a mutation on the interaction” value is “with no effect”.

In a further experiment the parent is B1. The note with it: with BCL2L1, Q07817-1.
Chain of BCL2L1, Q07817-1 (Q07817 whole entry): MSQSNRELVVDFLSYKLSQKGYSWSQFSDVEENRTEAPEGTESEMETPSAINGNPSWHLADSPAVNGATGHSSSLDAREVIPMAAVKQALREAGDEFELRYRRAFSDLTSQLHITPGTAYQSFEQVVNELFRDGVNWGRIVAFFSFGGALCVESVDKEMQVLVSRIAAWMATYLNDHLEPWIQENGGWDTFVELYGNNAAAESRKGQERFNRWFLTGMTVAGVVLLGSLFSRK
Regarding MAGSEELGLREDTLRVLAAFLRRGEAAGSPVPTPPRSPAQEEPTDFLSRLRRCLPCSLGRGAAPSESPRPCSLPIRPCYGLEPGPATPDFYALVAQRLEQLVQEQLKSPPSPELQGPPSTEKEAILRRAVALLEEEAEVINQKLASDPALRSKLVRLSSDSFARLVELFCSRDDSSRPSRACPGPPPPSPEPLARLALAMELSRRVAGLGGTLAGLSVEHVHSFTPWIQAHGGWEGILAVSPVDLNLPLD [L129A], the “effect of a mutation on the interaction” value was “disrupting interaction strength”.

Variants of B1 are the subject of another experiment. As to conditions: with bcl2_human BCL2, P10415.
Chain of bcl2_human BCL2, P10415 (P10415 whole entry): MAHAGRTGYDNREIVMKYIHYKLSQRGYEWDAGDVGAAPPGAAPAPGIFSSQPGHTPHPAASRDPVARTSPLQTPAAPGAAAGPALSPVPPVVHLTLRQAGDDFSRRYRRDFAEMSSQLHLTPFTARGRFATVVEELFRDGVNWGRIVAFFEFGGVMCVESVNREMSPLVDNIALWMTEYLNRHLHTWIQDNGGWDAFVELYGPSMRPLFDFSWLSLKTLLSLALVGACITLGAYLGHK
MAGSEELGLREDTLRVLAAFLRRGEAAGSPVPTPPRSPAQEEPTDFLSRLRRCLPCSLGRGAAPSESPRPCSLPIRPCYGLEPGPATPDFYALVAQRLEQLVQEQLKSPPSPELQGPPSTEKEAILRRAVALLEEEAEVINQKLASDPALRSKLVRLSSDSFARLVELFCSRDDSSRPSRACPGPPPPSPEPLARLALAMELSRRVAGLGGTLAGLSVEHVHSFTPWIQAHGGWEGILAVSPVDLNLPLD [L129A]: the “effect of a mutation on the interaction” value is reported as “disrupting interaction strength”.

The variants in another experiment derive from B1. As to conditions: with gsk3b_human GSK3B.
For the variant MAGSEELGLREDTLRVLAAFLRRGEAAGSPVPTPPRSPAQEEPTDFLSRLRRCLPCSLGRGAAPSESPRPCSLPIRPCYGLEPGPATPDFYALVAQRLEQLVQEQLKSPPSPELQGPPSTEKEAALRRLVALLEEEAEVINQKLASDPALRSKLVRLSSDSFARLVELFCSRDDSSRPSRACPGPPPPSPEPLARLALAMELSRRVAGLGGTLAGLSVEHVHSFTPWIQAHGGWEGILAVSPVDLNLPLD [I125A], the “effect of a mutation on the interaction” value was “disrupting interaction strength”.

The values are drawn from IntAct's records for PubMed 29749471.
